The text below walks through data of US20250368745A1 (published 2025).

T1: human IL-18BP (human, UniProt O95998 31-194)
T1 construct: also called hIL-18BP; Mature Human Isoform A
T1 sequence: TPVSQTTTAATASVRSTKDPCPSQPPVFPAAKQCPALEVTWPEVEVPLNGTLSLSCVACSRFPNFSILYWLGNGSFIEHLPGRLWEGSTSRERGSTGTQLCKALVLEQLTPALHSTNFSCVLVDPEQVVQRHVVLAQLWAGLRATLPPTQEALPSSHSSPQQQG

B1: SA301a light chain variant S28G (antibody, V domains shown)
VH: QVQLQESGPGLVKPSQTLSLTCTVSGYSITSDYNSHWIRQPPGKGLEWIGYIHYSGSTNYNPSLKSRVTISRDTSKNQFSLKLSSVTAADTAVYYCARNYGSIYVNYFDYWGQGTLVTVSS
VL: EIVLTQSPATLSLSPGERATLSCSASSGVSYMYWYQQKPGQAPRPLIYRTSNLASGIPARFSGSGSGTDFTLTISSLEPEDFAVYYCQQYHSYPTFGGGTKVEIK
B2: SA301a light chain variant V29R (antibody, V domains shown)
VH: QVQLQESGPGLVKPSQTLSLTCTVSGYSITSDYNSHWIRQPPGKGLEWIGYIHYSGSTNYNPSLKSRVTISRDTSKNQFSLKLSSVTAADTAVYYCARNYGSIYVNYFDYWGQGTLVTVSS
VL: EIVLTQSPATLSLSPGERATLSCSASSSRSYMYWYQQKPGQAPRPLIYRTSNLASGIPARFSGSGSGTDFTLTISSLEPEDFAVYYCQQYHSYPTFGGGTKVEIK
B3: SA301a light chain variant V29G (antibody, V domains shown)
VH: QVQLQESGPGLVKPSQTLSLTCTVSGYSITSDYNSHWIRQPPGKGLEWIGYIHYSGSTNYNPSLKSRVTISRDTSKNQFSLKLSSVTAADTAVYYCARNYGSIYVNYFDYWGQGTLVTVSS
VL: EIVLTQSPATLSLSPGERATLSCSASSSGSYMYWYQQKPGQAPRPLIYRTSNLASGIPARFSGSGSGTDFTLTISSLEPEDFAVYYCQQYHSYPTFGGGTKVEIK
B4: SA301a light chain variant S28T (antibody, V domains shown)
VH: QVQLQESGPGLVKPSQTLSLTCTVSGYSITSDYNSHWIRQPPGKGLEWIGYIHYSGSTNYNPSLKSRVTISRDTSKNQFSLKLSSVTAADTAVYYCARNYGSIYVNYFDYWGQGTLVTVSS
VL: EIVLTQSPATLSLSPGERATLSCSASSTVSYMYWYQQKPGQAPRPLIYRTSNLASGIPARFSGSGSGTDFTLTISSLEPEDFAVYYCQQYHSYPTFGGGTKVEIK
B5: SA301a light chain variant V29N (antibody, V domains shown)
VH: QVQLQESGPGLVKPSQTLSLTCTVSGYSITSDYNSHWIRQPPGKGLEWIGYIHYSGSTNYNPSLKSRVTISRDTSKNQFSLKLSSVTAADTAVYYCARNYGSIYVNYFDYWGQGTLVTVSS
VL: EIVLTQSPATLSLSPGERATLSCSASSSNSYMYWYQQKPGQAPRPLIYRTSNLASGIPARFSGSGSGTDFTLTISSLEPEDFAVYYCQQYHSYPTFGGGTKVEIK
B6: SA301a light chain variant V29L (antibody, V domains shown)
VH: QVQLQESGPGLVKPSQTLSLTCTVSGYSITSDYNSHWIRQPPGKGLEWIGYIHYSGSTNYNPSLKSRVTISRDTSKNQFSLKLSSVTAADTAVYYCARNYGSIYVNYFDYWGQGTLVTVSS
VL: EIVLTQSPATLSLSPGERATLSCSASSSLSYMYWYQQKPGQAPRPLIYRTSNLASGIPARFSGSGSGTDFTLTISSLEPEDFAVYYCQQYHSYPTFGGGTKVEIK
B7: SA301a light chain variant V29A (antibody, V domains shown)
VH: QVQLQESGPGLVKPSQTLSLTCTVSGYSITSDYNSHWIRQPPGKGLEWIGYIHYSGSTNYNPSLKSRVTISRDTSKNQFSLKLSSVTAADTAVYYCARNYGSIYVNYFDYWGQGTLVTVSS
VL: EIVLTQSPATLSLSPGERATLSCSASSSASYMYWYQQKPGQAPRPLIYRTSNLASGIPARFSGSGSGTDFTLTISSLEPEDFAVYYCQQYHSYPTFGGGTKVEIK
B8: SA301a light chain variant S28M (antibody, V domains shown)
VH: QVQLQESGPGLVKPSQTLSLTCTVSGYSITSDYNSHWIRQPPGKGLEWIGYIHYSGSTNYNPSLKSRVTISRDTSKNQFSLKLSSVTAADTAVYYCARNYGSIYVNYFDYWGQGTLVTVSS
VL: EIVLTQSPATLSLSPGERATLSCSASSMVSYMYWYQQKPGQAPRPLIYRTSNLASGIPARFSGSGSGTDFTLTISSLEPEDFAVYYCQQYHSYPTFGGGTKVEIK
B9: SA301a light chain variant S28Q (antibody, V domains shown)
VH: QVQLQESGPGLVKPSQTLSLTCTVSGYSITSDYNSHWIRQPPGKGLEWIGYIHYSGSTNYNPSLKSRVTISRDTSKNQFSLKLSSVTAADTAVYYCARNYGSIYVNYFDYWGQGTLVTVSS
VL: EIVLTQSPATLSLSPGERATLSCSASSQVSYMYWYQQKPGQAPRPLIYRTSNLASGIPARFSGSGSGTDFTLTISSLEPEDFAVYYCQQYHSYPTFGGGTKVEIK
B10: SA301a light chain variant S28K (antibody, V domains shown)
VH: QVQLQESGPGLVKPSQTLSLTCTVSGYSITSDYNSHWIRQPPGKGLEWIGYIHYSGSTNYNPSLKSRVTISRDTSKNQFSLKLSSVTAADTAVYYCARNYGSIYVNYFDYWGQGTLVTVSS
VL: EIVLTQSPATLSLSPGERATLSCSASSKVSYMYWYQQKPGQAPRPLIYRTSNLASGIPARFSGSGSGTDFTLTISSLEPEDFAVYYCQQYHSYPTFGGGTKVEIK
B11: SA301a light chain variant S28P (antibody, V domains shown)
VH: QVQLQESGPGLVKPSQTLSLTCTVSGYSITSDYNSHWIRQPPGKGLEWIGYIHYSGSTNYNPSLKSRVTISRDTSKNQFSLKLSSVTAADTAVYYCARNYGSIYVNYFDYWGQGTLVTVSS
VL: EIVLTQSPATLSLSPGERATLSCSASSPVSYMYWYQQKPGQAPRPLIYRTSNLASGIPARFSGSGSGTDFTLTISSLEPEDFAVYYCQQYHSYPTFGGGTKVEIK
B12: SA301a light chain variant S28E (antibody, V domains shown)
VH: QVQLQESGPGLVKPSQTLSLTCTVSGYSITSDYNSHWIRQPPGKGLEWIGYIHYSGSTNYNPSLKSRVTISRDTSKNQFSLKLSSVTAADTAVYYCARNYGSIYVNYFDYWGQGTLVTVSS
VL: EIVLTQSPATLSLSPGERATLSCSASSEVSYMYWYQQKPGQAPRPLIYRTSNLASGIPARFSGSGSGTDFTLTISSLEPEDFAVYYCQQYHSYPTFGGGTKVEIK
B13: SA301a light chain variant V29Y (antibody, V domains shown)
VH: QVQLQESGPGLVKPSQTLSLTCTVSGYSITSDYNSHWIRQPPGKGLEWIGYIHYSGSTNYNPSLKSRVTISRDTSKNQFSLKLSSVTAADTAVYYCARNYGSIYVNYFDYWGQGTLVTVSS
VL: EIVLTQSPATLSLSPGERATLSCSASSSYSYMYWYQQKPGQAPRPLIYRTSNLASGIPARFSGSGSGTDFTLTISSLEPEDFAVYYCQQYHSYPTFGGGTKVEIK
B14: SA301a light chain variant V29D (antibody, V domains shown)
VH: QVQLQESGPGLVKPSQTLSLTCTVSGYSITSDYNSHWIRQPPGKGLEWIGYIHYSGSTNYNPSLKSRVTISRDTSKNQFSLKLSSVTAADTAVYYCARNYGSIYVNYFDYWGQGTLVTVSS
VL: EIVLTQSPATLSLSPGERATLSCSASSSDSYMYWYQQKPGQAPRPLIYRTSNLASGIPARFSGSGSGTDFTLTISSLEPEDFAVYYCQQYHSYPTFGGGTKVEIK
B15: SA301a light chain variant V29H (antibody, V domains shown)
VH: QVQLQESGPGLVKPSQTLSLTCTVSGYSITSDYNSHWIRQPPGKGLEWIGYIHYSGSTNYNPSLKSRVTISRDTSKNQFSLKLSSVTAADTAVYYCARNYGSIYVNYFDYWGQGTLVTVSS
VL: EIVLTQSPATLSLSPGERATLSCSASSSHSYMYWYQQKPGQAPRPLIYRTSNLASGIPARFSGSGSGTDFTLTISSLEPEDFAVYYCQQYHSYPTFGGGTKVEIK

This experiment addresses T1, human IL-18BP. The experiment is described as follows: BLI, apparent KD, one conc. In general terms: In BLI a coated tip is dipped into the sample, and binding shifts an interference pattern.
On to B1, for which the Kd amounted to 510 pM. Turning to B2, the Kd is 380 pM. Then B3, with 410 pM; and B4, with 430 pM; and B5, with 440 pM. Then B6, with 330 pM. Regarding B7, the Kd was 400 pM. The figure for B8 is 510 pM; for B9 it is 450 pM. Then B10, with 510 pM; and B11, with 390 pM. Turning to B12, the Kd came out at 390 pM.

For B13, the Kd is 400 pM. The figure for B14 is 430 pM; for B15 it is 470 pM.
